Experimental data reported in publication PMC9482650, “Quantitative fragmentomics allow affinity mapping of interactomes” (Nature Communications, 2022).
Where a chain is given by its changes, count along the chain named.

T1: TX1BP3, O14907
T1 sequence (O14907 10-122, limits assumed, looked up): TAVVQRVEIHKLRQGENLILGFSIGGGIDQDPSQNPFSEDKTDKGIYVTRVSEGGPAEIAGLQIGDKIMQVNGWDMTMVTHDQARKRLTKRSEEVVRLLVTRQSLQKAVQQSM

T2: PCLO, Q9Y6V0
T2 sequence (Q9Y6V0 4491-4600, limits assumed, looked up): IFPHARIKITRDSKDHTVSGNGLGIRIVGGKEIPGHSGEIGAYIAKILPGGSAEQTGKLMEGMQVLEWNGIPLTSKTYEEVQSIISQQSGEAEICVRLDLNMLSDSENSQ

T3: APBA2_1, Q99767
T3 sequence (Q99767 563-664, limits assumed, looked up): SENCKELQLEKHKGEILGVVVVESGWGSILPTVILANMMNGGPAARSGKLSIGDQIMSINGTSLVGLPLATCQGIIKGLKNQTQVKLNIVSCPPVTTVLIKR

T4: APBA1_2, Q02410
T4 sequence (Q02410 742-832, limits assumed, looked up): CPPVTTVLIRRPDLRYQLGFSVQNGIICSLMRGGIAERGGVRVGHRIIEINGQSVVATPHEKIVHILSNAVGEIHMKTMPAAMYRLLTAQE

T5: DLG3_1, Q92796
T5 sequence (Q92796 125-227, limits assumed, looked up): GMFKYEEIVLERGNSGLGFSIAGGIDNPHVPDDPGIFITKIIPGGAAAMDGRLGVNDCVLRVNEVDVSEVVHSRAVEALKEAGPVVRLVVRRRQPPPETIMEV

T6: LIN7A, O14910
T6 sequence (O14910 103-200, limits assumed, looked up): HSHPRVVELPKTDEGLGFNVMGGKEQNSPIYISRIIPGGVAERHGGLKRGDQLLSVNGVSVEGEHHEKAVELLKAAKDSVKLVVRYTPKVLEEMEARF

T7: ARHGEF11, O15085
T7 sequence (O15085 42-136, limits assumed, looked up): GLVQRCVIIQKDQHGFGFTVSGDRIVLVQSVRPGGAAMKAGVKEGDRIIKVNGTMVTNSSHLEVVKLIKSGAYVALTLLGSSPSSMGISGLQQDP

T8: SNTG2, Q9NY99
T8 sequence (Q9NY99 68-166, limits assumed, looked up): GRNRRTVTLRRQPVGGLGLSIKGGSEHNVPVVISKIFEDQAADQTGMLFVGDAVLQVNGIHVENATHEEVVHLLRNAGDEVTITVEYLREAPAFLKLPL

T9: PARD3B_1, Q8TEW8
T9 sequence (Q8TEW8 196-299, limits assumed, looked up): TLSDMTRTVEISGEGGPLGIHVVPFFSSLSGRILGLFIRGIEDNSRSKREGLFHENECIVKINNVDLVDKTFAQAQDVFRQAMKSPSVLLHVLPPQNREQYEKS

T10: LIN7C, Q9NUP9
T10 sequence (Q9NUP9 88-185, limits assumed, looked up): T6 sequence (O14910 103-200, limits assumed, looked up) with D13E, V20I, V40I, E42D, K77Q, D78G, S79K, A96S

T11: RAPGEF6, Q8TEU7
T11 sequence (Q8TEU7 525-625, limits assumed, looked up): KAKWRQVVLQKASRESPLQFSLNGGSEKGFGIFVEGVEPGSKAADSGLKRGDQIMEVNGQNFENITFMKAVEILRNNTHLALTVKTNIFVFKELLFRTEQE


What was measured:
Test in all cases: holdup assay
Parameters in all cases: key: below the threshold = too weak to quantify, mostly under pKd 3.1 to 4
Details in all cases: plain residues with an end cap or a label only (N-terminal biotin on a linker: ado-ado)
DLG5_1, Q8TDM6 = molecular target: DLG5_1, Q8TDM6
DLG5_1, Q8TDM6, sequence (Q8TDM6 617-713): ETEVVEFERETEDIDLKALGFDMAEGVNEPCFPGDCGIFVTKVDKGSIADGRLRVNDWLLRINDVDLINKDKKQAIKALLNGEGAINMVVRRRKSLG

TX1BP3, O14907 = molecular target: T1, TX1BP3, O14907
GRIP2_7, Q9C0E4 = molecular target: GRIP2_7, Q9C0E4
GRIP2_7, Q9C0E4, sequence (Q9C0E4 934-1023): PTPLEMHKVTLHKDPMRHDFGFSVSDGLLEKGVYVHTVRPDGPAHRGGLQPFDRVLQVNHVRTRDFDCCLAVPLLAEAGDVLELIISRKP

AHNAK1, Q09666 = molecular target: AHNAK1, Q09666
AHNAK1, Q09666, sequence (Q09666 4-100): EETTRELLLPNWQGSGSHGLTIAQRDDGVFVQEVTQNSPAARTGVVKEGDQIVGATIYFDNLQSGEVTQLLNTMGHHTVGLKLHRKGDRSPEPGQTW

PCLO, Q9Y6V0 = molecular target: T2, PCLO, Q9Y6V0
APBA2_1, Q99767 = molecular target: T3, APBA2_1, Q99767
APBA1_2, Q02410 = molecular target: T4, APBA1_2, Q02410
FRMPD3, Q5JV73 = molecular target: FRMPD3, Q5JV73
FRMPD3, Q5JV73, sequence (Q5JV73 12-100): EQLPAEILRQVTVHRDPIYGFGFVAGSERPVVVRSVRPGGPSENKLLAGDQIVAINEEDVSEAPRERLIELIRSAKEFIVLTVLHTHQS

MAGI3_2, Q5TCQ9 = molecular target: MAGI3_2, Q5TCQ9
MAGI3_2, Q5TCQ9, sequence (Q5TCQ9 398-503): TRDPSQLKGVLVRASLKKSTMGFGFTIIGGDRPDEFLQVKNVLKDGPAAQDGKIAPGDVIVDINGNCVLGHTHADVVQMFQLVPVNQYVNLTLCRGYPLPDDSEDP

LNX1_2, Q8TBB1 = molecular target: LNX1_2, Q8TBB1
LNX1_2, Q8TBB1, sequence (Q8TBB1 371-470): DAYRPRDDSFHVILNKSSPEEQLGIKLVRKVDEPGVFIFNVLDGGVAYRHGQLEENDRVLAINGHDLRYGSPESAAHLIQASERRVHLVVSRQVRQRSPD

GRASP, Q7Z6J2 = molecular target: GRASP, Q7Z6J2
GRASP, Q7Z6J2, sequence (Q7Z6J2 96-193): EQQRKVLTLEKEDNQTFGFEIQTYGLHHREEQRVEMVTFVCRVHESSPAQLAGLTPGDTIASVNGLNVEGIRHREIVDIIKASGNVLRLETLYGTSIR

HTRA2, O43464 = molecular target: HTRA2, O43464
HTRA2, O43464, sequence (O43464 355-458): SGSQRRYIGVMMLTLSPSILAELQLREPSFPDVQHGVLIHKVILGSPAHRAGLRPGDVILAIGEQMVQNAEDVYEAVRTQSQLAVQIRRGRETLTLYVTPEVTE

DLG3_1, Q92796 = molecular target: T5, DLG3_1, Q92796
Inadl_9, Q8NI35 = molecular target: Inadl_9, Q8NI35
Inadl_9, Q8NI35, sequence (Q8NI35 1530-1615): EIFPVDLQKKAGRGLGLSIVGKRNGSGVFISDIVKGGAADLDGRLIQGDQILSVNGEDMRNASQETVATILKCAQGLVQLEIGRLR

Inadl_10, Q8NI35 = molecular target: Inadl_10, Q8NI35
Inadl_10, Q8NI35, sequence (Q8NI35 1673-1763): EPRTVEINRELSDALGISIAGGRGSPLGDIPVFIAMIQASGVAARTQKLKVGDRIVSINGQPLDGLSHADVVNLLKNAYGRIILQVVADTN

LIN7A, O14910 = molecular target: T6, LIN7A, O14910
ARHGEF11, O15085 = molecular target: T7, ARHGEF11, O15085
LNX1_1, Q8TBB1 = molecular target: LNX1_1, Q8TBB1
LNX1_1, Q8TBB1, sequence (Q8TBB1 261-371): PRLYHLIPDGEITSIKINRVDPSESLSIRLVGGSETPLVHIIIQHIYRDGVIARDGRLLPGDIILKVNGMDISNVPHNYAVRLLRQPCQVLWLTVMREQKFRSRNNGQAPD

DLG1_2, Q12959 = molecular target: DLG1_2, Q12959
DLG1_2, Q12959, sequence (Q12959 314-412): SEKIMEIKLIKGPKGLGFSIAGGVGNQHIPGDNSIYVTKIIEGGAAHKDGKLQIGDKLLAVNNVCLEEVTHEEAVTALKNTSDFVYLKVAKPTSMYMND

SNTG2, Q9NY99 = molecular target: T8, SNTG2, Q9NY99
PARD3B_1, Q8TEW8 = molecular target: T9, PARD3B_1, Q8TEW8
MAGI2_6, Q86UL8 = molecular target: MAGI2_6, Q86UL8
MAGI2_6, Q86UL8, sequence (Q86UL8 1141-1229): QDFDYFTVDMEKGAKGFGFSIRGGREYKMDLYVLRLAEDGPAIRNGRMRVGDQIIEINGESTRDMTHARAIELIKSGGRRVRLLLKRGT

LIN7C, Q9NUP9 = molecular target: T10, LIN7C, Q9NUP9
FRMPD2_3, Q68DX3 = molecular target: FRMPD2_3, Q68DX3
FRMPD2_3, Q68DX3, sequence (Q68DX3 1073-1166): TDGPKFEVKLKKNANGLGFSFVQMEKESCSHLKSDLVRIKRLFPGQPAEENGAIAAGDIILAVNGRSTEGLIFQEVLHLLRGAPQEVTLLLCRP

LIMK2, P53671 = molecular target: LIMK2, P53671
LIMK2, P53671, sequence (P53671 143-248): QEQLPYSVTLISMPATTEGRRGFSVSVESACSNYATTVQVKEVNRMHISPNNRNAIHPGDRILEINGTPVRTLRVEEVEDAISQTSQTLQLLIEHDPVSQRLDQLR

RAPGEF6, Q8TEU7 = molecular target: T11, RAPGEF6, Q8TEU7
DLG2_3, Q15700 = molecular target: DLG2_3, Q15700

Binder | pKd (DLG5_1, Q8TDM6) | pKd (TX1BP3, O14907) | pKd (GRIP2_7, Q9C0E4) | pKd (AHNAK1, Q09666) | pKd (PCLO, Q9Y6V0) | pKd (APBA2_1, Q99767) | pKd (APBA1_2, Q02410) | pKd (FRMPD3, Q5JV73) | pKd (MAGI3_2, Q5TCQ9) | pKd (LNX1_2, Q8TBB1) | pKd (GRASP, Q7Z6J2) | pKd (HTRA2, O43464) | pKd (DLG3_1, Q92796) | pKd (Inadl_9, Q8NI35) | pKd (Inadl_10, Q8NI35) | pKd (LIN7A, O14910) | pKd (ARHGEF11, O15085) | pKd (LNX1_1, Q8TBB1) | pKd (DLG1_2, Q12959) | pKd (SNTG2, Q9NY99) | other results
QSARLWETSI [ADAM22, Q9P0K1] | below the threshold | 4.8 | below the threshold | below the threshold | below the threshold | below the threshold | below the threshold | below the threshold | 4.22 | below the threshold | 4.17 | below the threshold | below the threshold | below the threshold | 3.8 | 3.69 | 3.79 | 4.43 | 4.47 | 4.86 | pKd (PARD3B_1, Q8TEW8): 3.78; pKd (MAGI2_6, Q86UL8): 4.22; pKd (LIN7C, Q9NUP9): 4.5; pKd (FRMPD2_3, Q68DX3): below the threshold; pKd (LIMK2, P53671): below the threshold; pKd (RAPGEF6, Q8TEU7): below the threshold; pKd (DLG2_3, Q15700): 4.47
SAAKVLTSMC [GHRHR, Q02643] | below the threshold | 3.54 | below the threshold | below the threshold | below the threshold | below the threshold | below the threshold | below the threshold | below the threshold | below the threshold | 4.32 | below the threshold | below the threshold | below the threshold | below the threshold | below the threshold | 4.21 | 3.86 | below the threshold | below the threshold | pKd (PARD3B_1, Q8TEW8): below the threshold; pKd (MAGI2_6, Q86UL8): below the threshold; pKd (LIN7C, Q9NUP9): below the threshold; pKd (FRMPD2_3, Q68DX3): below the threshold; pKd (LIMK2, P53671): below the threshold; pKd (RAPGEF6, Q8TEU7): below the threshold; pKd (DLG2_3, Q15700): 3.8
QSPANIYYKV [EFNB1, P52799] | below the threshold | below the threshold | 4.34 | below the threshold | below the threshold | below the threshold | below the threshold | below the threshold | below the threshold | 3.61 | below the threshold | 4.18 | below the threshold | below the threshold | below the threshold | below the threshold | below the threshold | below the threshold | below the threshold | below the threshold | pKd (PARD3B_1, Q8TEW8): 3.66; pKd (MAGI2_6, Q86UL8): below the threshold; pKd (LIN7C, Q9NUP9): below the threshold; pKd (FRMPD2_3, Q68DX3): below the threshold; pKd (LIMK2, P53671): below the threshold; pKd (RAPGEF6, Q8TEU7): below the threshold; pKd (DLG2_3, Q15700): below the threshold
TLPRKRMSSI [GPRC6A, Q5T6X5] | below the threshold | below the threshold | below the threshold | below the threshold | below the threshold | below the threshold | below the threshold | below the threshold | 4.15 | below the threshold | below the threshold | below the threshold | below the threshold | below the threshold | below the threshold | below the threshold | below the threshold | 3.78 | 3.76 | below the threshold | pKd (PARD3B_1, Q8TEW8): below the threshold; pKd (MAGI2_6, Q86UL8): below the threshold; pKd (LIN7C, Q9NUP9): below the threshold; pKd (FRMPD2_3, Q68DX3): below the threshold; pKd (LIMK2, P53671): below the threshold; pKd (RAPGEF6, Q8TEU7): below the threshold; pKd (DLG2_3, Q15700): 3.84
MLSKQSESAI [FLVCR1, Q9Y5Y0] | below the threshold | 4.1 | below the threshold | below the threshold | below the threshold | below the threshold | below the threshold | below the threshold | 4.45 | below the threshold | below the threshold | below the threshold | below the threshold | below the threshold | below the threshold | below the threshold | below the threshold | 3.52 | 3.82 | 3.81 | pKd (PARD3B_1, Q8TEW8): 3.47; pKd (MAGI2_6, Q86UL8): below the threshold; pKd (LIN7C, Q9NUP9): below the threshold; pKd (FRMPD2_3, Q68DX3): below the threshold; pKd (LIMK2, P53671): below the threshold; pKd (RAPGEF6, Q8TEU7): below the threshold; pKd (DLG2_3, Q15700): below the threshold
